Values of other authors as cited in article PMC12990809.

Legend:
Assay in all cases: pulldown
Details in all cases: 20 nM protein, 1.5 uM RNA pool; 20 mM HEPES pH 7.8, 70 mM KCl, 10 mM NaCl, 10% glycerol, 2 mM DTT, 0.1 ug/uL BSA; 30 min, 4 C (protocol of this paper; not …); cited from earlier work
[1] = molecular target: T1, Cnot4 (Drosophila melanogaster) (UniProt M9MRH8)
T1 sequence: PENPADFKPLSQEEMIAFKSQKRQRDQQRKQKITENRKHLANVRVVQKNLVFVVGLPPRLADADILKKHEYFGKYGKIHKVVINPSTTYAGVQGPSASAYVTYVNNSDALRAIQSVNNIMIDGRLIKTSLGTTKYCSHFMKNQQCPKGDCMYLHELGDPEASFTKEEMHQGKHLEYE

SRSF1 (Homo sapiens) = SRSF1 (Homo sapiens) (UniProt Q07955)
SRSF1 (Homo sapiens), sequence (Q07955 1-202): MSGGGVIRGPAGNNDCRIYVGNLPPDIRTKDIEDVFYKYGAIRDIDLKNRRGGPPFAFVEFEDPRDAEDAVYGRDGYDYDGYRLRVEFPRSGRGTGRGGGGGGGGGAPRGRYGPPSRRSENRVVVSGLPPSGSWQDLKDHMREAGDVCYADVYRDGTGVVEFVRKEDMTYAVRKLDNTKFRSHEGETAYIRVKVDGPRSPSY

SRSF7 (Homo sapiens) = molecular target: T2, SRSF7 (Homo sapiens) (UniProt Q16629)
T2 sequence: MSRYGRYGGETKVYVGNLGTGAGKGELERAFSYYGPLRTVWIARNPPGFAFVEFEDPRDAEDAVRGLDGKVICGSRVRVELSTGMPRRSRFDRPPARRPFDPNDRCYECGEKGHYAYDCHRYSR

[2] = molecular target: T3, VTS1 S437M (Saccharomyces cerevisiae) (UniProt Q08831)
T3 sequence: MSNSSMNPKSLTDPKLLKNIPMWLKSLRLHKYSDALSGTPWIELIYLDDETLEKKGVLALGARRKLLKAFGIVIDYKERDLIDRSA

[3] = molecular target: T4, orb2 (Drosophila melanogaster) (UniProt Q9VSR3)
T4 sequence: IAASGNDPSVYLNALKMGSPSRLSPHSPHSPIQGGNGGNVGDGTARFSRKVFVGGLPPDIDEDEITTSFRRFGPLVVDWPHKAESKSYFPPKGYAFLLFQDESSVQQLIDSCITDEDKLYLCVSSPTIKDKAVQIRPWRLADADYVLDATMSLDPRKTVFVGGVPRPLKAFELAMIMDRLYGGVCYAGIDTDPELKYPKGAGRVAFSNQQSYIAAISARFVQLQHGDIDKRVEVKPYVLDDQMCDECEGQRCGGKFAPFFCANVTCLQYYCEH

U2AF2 (Homo sapiens) = U2AF2 (Homo sapiens) (UniProt P26368)
U2AF2 (Homo sapiens), sequence (P26368 101-475): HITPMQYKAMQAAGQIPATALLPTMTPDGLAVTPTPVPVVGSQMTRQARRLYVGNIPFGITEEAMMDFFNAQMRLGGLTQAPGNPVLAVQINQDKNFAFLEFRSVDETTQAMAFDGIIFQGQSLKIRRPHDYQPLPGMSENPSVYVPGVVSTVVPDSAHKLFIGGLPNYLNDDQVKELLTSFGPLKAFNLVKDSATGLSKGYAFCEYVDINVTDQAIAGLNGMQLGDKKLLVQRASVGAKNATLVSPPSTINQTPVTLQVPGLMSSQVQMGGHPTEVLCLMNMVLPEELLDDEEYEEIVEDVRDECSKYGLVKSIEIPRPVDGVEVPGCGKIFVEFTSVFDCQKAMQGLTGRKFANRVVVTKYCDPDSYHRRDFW

SNRNP70 (Homo sapiens) = SNRNP70 (Homo sapiens) (UniProt P08621)
SNRNP70 (Homo sapiens), sequence (P08621 55-225): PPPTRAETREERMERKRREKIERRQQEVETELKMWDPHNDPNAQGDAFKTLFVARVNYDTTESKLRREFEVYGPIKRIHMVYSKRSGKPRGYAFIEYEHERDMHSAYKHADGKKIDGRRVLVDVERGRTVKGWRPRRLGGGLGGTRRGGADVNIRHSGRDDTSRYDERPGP

[4] = molecular target: T5, sm (Drosophila melanogaster) (UniProt A4UZQ5)
T5 sequence: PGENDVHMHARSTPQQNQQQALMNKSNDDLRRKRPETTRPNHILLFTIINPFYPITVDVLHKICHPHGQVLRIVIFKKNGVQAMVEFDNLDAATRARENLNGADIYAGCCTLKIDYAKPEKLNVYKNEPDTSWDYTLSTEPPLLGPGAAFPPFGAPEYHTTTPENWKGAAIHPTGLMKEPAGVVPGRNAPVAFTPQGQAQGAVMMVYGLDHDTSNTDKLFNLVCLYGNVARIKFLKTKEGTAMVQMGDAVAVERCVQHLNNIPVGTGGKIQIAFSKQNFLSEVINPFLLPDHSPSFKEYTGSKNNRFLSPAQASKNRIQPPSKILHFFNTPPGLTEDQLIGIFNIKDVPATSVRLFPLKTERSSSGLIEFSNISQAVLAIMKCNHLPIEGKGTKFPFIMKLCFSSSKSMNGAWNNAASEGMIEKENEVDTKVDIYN

SNRPA (Homo sapiens) = SNRPA (Homo sapiens) (UniProt P09012)
SNRPA (Homo sapiens), sequence (P09012 whole entry): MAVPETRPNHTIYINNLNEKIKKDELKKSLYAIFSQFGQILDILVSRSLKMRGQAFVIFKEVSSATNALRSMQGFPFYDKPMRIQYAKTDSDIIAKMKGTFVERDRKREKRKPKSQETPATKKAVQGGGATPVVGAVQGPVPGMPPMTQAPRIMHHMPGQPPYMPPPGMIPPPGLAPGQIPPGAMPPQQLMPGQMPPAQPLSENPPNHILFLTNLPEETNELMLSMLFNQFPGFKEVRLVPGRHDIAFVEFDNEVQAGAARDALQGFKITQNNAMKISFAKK

ZC3H10 (Homo sapiens) = molecular target: T6, ZC3H10 (Homo sapiens) (UniProt Q96K80)
T6 sequence: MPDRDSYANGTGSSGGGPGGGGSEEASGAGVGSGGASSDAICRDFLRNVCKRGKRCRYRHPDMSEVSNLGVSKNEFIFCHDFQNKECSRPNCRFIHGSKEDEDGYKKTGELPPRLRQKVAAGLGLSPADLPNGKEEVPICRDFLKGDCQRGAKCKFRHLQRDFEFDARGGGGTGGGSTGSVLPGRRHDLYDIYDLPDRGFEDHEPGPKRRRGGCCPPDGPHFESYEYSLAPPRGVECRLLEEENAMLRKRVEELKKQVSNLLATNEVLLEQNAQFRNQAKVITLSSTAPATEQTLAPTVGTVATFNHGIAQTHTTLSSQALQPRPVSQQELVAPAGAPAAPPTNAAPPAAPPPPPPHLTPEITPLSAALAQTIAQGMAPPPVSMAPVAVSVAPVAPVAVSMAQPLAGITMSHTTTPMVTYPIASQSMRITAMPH

[5] = molecular target: Hrb98DE (Drosophila melanogaster) (UniProt P07909)
Hrb98DE (Drosophila melanogaster), sequence (P07909 whole entry): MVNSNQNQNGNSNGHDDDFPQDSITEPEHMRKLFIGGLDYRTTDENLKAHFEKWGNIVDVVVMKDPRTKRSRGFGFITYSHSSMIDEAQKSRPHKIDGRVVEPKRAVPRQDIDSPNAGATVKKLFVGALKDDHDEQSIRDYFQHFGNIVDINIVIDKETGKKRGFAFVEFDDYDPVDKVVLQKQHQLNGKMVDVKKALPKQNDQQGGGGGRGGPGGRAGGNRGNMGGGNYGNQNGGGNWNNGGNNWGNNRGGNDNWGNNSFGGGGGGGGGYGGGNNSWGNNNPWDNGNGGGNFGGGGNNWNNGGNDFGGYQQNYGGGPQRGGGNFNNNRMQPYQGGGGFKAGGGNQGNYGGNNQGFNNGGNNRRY

[6] = molecular target: T7, elav (Drosophila melanogaster) (UniProt P16914)
T7 sequence: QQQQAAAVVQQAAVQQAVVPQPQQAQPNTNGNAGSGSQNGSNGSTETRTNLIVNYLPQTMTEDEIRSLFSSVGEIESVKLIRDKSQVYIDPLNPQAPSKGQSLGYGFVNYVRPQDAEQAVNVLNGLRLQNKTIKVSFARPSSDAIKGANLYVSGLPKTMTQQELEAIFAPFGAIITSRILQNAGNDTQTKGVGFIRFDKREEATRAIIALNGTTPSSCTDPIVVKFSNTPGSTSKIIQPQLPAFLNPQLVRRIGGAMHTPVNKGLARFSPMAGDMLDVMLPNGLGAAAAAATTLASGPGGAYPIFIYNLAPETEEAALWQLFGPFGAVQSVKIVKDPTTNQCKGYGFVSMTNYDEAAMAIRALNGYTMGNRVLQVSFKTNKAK

YBX2 (Homo sapiens) = YBX2 (Homo sapiens) (UniProt Q9Y2T7)
YBX2 (Homo sapiens), sequence (Q9Y2T7 whole entry): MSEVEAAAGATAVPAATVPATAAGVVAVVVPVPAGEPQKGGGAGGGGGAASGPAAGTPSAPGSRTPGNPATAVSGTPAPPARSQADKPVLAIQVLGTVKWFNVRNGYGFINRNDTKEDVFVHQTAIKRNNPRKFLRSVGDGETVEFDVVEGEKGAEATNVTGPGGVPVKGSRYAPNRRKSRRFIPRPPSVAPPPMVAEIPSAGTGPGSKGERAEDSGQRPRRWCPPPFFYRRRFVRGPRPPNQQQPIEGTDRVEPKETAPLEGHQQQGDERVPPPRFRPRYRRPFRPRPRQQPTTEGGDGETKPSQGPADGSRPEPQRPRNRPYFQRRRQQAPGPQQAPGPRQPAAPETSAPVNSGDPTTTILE

ZCRB1 (Homo sapiens) = ZCRB1 (Homo sapiens) (UniProt Q8TBF4)
ZCRB1 (Homo sapiens), sequence (Q8TBF4 1-132): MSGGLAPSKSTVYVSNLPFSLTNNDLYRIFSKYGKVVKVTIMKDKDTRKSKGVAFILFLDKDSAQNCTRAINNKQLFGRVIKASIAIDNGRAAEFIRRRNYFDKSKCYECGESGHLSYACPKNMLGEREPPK

[7] = molecular target: unc-75 (Caenorhabditis elegans) (UniProt G5EE68)
[8] = molecular target: T8, A2bp1 (Drosophila melanogaster) (UniProt Q9VT99)
T8 sequence: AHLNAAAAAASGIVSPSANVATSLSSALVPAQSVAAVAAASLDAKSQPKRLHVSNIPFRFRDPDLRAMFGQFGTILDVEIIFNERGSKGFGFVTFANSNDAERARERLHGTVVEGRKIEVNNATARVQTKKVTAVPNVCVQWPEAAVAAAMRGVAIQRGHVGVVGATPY

[9] = molecular target: T9, Sxl (Drosophila melanogaster) (UniProt P19339)
T9 sequence: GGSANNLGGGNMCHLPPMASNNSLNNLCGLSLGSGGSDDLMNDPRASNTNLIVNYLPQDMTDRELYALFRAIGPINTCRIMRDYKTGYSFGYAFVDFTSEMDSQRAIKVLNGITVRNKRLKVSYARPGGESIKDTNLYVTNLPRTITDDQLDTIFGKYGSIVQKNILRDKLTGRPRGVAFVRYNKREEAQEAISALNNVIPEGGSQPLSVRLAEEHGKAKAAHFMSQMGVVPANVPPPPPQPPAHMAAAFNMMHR

[10] = molecular target: fne (Drosophila melanogaster) (UniProt Q7KIS3)
fne (Drosophila melanogaster), sequence (Q7KIS3 entry or part of it): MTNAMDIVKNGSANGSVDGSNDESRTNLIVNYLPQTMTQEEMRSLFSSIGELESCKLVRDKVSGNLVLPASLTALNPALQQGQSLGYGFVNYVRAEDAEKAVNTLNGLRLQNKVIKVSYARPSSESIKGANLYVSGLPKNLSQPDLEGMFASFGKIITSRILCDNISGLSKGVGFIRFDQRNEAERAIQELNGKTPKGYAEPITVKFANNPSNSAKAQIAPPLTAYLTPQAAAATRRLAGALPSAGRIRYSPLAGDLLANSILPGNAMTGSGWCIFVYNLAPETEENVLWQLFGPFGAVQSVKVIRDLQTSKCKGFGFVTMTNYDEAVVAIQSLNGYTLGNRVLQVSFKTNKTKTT

TARDBP (Homo sapiens) = TARDBP (Homo sapiens) (UniProt Q13148)
TARDBP (Homo sapiens), sequence (Q13148 56-315): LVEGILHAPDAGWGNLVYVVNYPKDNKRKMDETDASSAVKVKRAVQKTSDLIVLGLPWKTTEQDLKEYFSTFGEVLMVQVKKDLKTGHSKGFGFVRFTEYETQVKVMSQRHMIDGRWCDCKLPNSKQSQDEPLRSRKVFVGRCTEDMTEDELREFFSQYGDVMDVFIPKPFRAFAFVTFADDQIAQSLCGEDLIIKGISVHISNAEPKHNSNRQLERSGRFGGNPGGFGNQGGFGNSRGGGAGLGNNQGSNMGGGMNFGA

TIA1 (Homo sapiens) = molecular target: T10, TIA1 (Homo sapiens) (UniProt P31483)
T10 sequence: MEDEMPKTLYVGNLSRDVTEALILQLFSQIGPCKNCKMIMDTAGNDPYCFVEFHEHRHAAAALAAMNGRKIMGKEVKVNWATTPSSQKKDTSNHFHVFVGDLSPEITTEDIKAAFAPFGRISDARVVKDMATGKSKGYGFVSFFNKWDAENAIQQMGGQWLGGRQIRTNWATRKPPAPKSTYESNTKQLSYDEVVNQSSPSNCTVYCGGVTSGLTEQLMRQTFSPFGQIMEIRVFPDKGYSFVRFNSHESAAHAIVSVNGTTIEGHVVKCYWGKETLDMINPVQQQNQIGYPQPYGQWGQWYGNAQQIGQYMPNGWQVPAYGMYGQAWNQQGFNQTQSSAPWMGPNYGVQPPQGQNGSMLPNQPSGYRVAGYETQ

[11] = molecular target: T11, bru-3 (Drosophila melanogaster) (UniProt Q7K305)
T11 sequence: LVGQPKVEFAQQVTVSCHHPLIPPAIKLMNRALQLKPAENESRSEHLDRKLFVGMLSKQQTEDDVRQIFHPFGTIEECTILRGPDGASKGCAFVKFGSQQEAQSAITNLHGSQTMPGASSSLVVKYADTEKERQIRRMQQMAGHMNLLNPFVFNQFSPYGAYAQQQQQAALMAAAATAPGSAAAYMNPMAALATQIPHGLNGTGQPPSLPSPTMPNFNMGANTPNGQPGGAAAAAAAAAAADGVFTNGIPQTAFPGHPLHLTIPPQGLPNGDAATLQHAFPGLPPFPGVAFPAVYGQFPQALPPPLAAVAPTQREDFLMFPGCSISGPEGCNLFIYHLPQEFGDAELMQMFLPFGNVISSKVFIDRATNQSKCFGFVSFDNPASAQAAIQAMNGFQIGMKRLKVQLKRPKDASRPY

[12] = molecular target: U2af50 (Drosophila melanogaster) (UniProt Q24562)
U2af50 (Drosophila melanogaster), sequence (Q24562 45-416): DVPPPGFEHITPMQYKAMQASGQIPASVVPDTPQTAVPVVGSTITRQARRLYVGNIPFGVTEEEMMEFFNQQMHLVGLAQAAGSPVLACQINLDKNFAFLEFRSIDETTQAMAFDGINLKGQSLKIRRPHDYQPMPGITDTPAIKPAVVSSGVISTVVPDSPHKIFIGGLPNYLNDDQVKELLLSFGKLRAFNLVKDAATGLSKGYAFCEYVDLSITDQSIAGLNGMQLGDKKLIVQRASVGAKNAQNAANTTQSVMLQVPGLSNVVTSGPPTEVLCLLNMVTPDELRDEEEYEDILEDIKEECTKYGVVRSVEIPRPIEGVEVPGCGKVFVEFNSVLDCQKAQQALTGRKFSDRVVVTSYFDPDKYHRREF

YBX1 (Homo sapiens) = YBX1 (Homo sapiens) (UniProt P67809)
YBX1 (Homo sapiens), sequence (P67809 whole entry): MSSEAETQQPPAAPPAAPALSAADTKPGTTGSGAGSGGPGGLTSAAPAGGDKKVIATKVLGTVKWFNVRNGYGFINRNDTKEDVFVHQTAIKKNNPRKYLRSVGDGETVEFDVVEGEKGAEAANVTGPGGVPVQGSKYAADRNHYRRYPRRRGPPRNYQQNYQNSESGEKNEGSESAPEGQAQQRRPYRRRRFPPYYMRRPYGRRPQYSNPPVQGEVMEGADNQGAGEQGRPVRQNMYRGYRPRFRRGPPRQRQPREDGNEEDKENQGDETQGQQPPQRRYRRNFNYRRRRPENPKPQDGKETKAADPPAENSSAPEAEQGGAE

[13] = molecular target: T12, mxt (Drosophila melanogaster) (UniProt Q9VR35)
T12 sequence: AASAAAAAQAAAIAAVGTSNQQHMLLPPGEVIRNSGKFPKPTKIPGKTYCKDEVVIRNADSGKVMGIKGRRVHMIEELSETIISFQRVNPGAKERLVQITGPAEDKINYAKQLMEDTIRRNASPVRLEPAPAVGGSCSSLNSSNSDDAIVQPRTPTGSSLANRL

[14] = molecular target: T13, how (Drosophila melanogaster) (UniProt O01367)
T13 sequence: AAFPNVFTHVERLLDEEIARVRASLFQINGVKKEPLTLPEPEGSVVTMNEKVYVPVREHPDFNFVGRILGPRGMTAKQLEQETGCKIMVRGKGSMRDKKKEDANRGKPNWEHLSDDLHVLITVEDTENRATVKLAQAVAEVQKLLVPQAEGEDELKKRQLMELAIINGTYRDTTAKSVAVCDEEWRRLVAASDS

[15] = molecular target: T14, tra2 (Drosophila melanogaster) (UniProt P19018)
T14 sequence: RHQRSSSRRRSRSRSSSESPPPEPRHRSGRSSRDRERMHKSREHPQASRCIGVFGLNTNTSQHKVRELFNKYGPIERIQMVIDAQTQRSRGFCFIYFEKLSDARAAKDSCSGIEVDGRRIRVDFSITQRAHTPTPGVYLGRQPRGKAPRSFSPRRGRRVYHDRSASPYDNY

[16] = molecular target: T15, msi (Drosophila melanogaster) (UniProt H9ZJL0)
T15 sequence: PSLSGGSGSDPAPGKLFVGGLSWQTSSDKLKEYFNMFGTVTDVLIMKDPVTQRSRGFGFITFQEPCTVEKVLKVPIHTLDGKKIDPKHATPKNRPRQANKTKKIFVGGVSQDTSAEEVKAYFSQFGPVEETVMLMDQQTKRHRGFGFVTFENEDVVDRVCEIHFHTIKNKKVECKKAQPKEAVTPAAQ

AGACACA [RNAcompete motif RNCMPT00008]
binding signal (z-score (mean of top ten 7-mers)) [1]: 12.4

GAGGAGC [RNAcompete motif RNCMPT00163]
binding signal (z-score (mean of top ten 7-mers)) (SRSF1 (Homo sapiens)): 11.3

GACGACG [RNAcompete motif RNCMPT00073]
binding signal (z-score (mean of top ten 7-mers)) (SRSF7 (Homo sapiens)): 11.3

GCUGGCC [RNAcompete motif RNCMPT00111]
binding signal (z-score (mean of top ten 7-mers)) [2]: 24.3

UUUUUUG [RNAcompete motif RNCMPT00126]
binding signal (z-score (mean of top ten 7-mers)) [3]: 15.9

UUUUUCC [RNAcompete motif RNCMPT00079]
binding signal (z-score (mean of top ten 7-mers)) (U2AF2 (Homo sapiens)): 17

AUCAAG [RNAcompete motif RNCMPT00070]
binding signal (z-score (mean of top ten 7-mers)) (SNRNP70 (Homo sapiens)): 8.16

AGACAC [RNAcompete motif RNCMPT00069]
binding signal (z-score (mean of top ten 7-mers)) [4]: 11.2

UUGCACA [RNAcompete motif RNCMPT00071]
binding signal (z-score (mean of top ten 7-mers)) (SNRPA (Homo sapiens)): 10.9

GCAGCGCG [RNAcompete motif RNCMPT00085]
binding signal (z-score (mean of top ten 7-mers)) (ZC3H10 (Homo sapiens)): 16.6

GGUAGGG [RNAcompete motif RNCMPT00096]
binding signal (z-score (mean of top ten 7-mers)) [5]: 21.8

UUUUUUU [RNAcompete motif RNCMPT00121]
binding signal (z-score (mean of top ten 7-mers)) [6]: 17.2

AACANC [RNAcompete motif RNCMPT00084]
binding signal (z-score (mean of top ten 7-mers)) (YBX2 (Homo sapiens)): 9.95

GAAUUAAG [RNAcompete motif RNCMPT00087]
binding signal (z-score (mean of top ten 7-mers)) (ZCRB1 (Homo sapiens)): 12

UGUUGUG [RNAcompete motif RNCMPT00081]
binding signal (z-score (mean of top ten 7-mers)) [7]: 10.4

UGCAUG [RNAcompete motif RNCMPT00123]
binding signal (z-score (mean of top ten 7-mers)) [8]: 21.3

UUUUUUU [RNAcompete motif RNCMPT00119]
binding signal (z-score (mean of top ten 7-mers)) [9]: 17.2

UUUUUUU [RNAcompete motif RNCMPT00120]
binding signal (z-score (mean of top ten 7-mers)) [10]: 12.7

GAAUGA [RNAcompete motif RNCMPT00076]
binding signal (z-score (mean of top ten 7-mers)) (TARDBP (Homo sapiens)): 9.33

UUUUUU [RNAcompete motif RNCMPT00165]
binding signal (z-score (mean of top ten 7-mers)) (TIA1 (Homo sapiens)): 9.41

GUGUUGU [RNAcompete motif RNCMPT00122]
binding signal (z-score (mean of top ten 7-mers)) [11]: 20.4

UUUUUCC [RNAcompete motif RNCMPT00080]
binding signal (z-score (mean of top ten 7-mers)) [12]: 12.8

AACAUC [RNAcompete motif RNCMPT00083]
binding signal (z-score (mean of top ten 7-mers)) (YBX1 (Homo sapiens)): 14.5

CAACGA [RNAcompete motif RNCMPT00007]
binding signal (z-score (mean of top ten 7-mers)) [13]: 13.9

ACUAAC [RNAcompete motif RNCMPT00118]
binding signal (z-score (mean of top ten 7-mers)) [14]: 25.4

AGAAGA [RNAcompete motif RNCMPT00078]
binding signal (z-score (mean of top ten 7-mers)) [15]: 7.09

GUAGUU [RNAcompete motif RNCMPT00099]
binding signal (z-score (mean of top ten 7-mers)) [16]: 11.6
